The text below walks through data of publication PMC4186817, “Expression, Purification, and Structural Insights for the Human Uric Acid Transporter, GLUT9, Using the Xenopus laevis Oocytes System” (PLoS ONE, 2014).

This series deals with the molecule itself. The experiment in a line: SDS-PAGE with silver stain and Western blot (anti-HA); eluate of the cobalt IMAC column (HRV 3C elution) from DDM-solubilised oocyte membranes, 8% SDS polyacrylamide gel. (In general: A western blot detects proteins with antibodies after separation by electrophoresis.)

B1: human GLUT9b (SLC2A9b), recombinant (natural protein, UniProt Q9NRM0-2 1-511, looked up)
chain: MKLSKKDRGEDEESDSAKKKLDWSCSLLVASLAGAFGSSFLYGYNLSVVNAPTPYIKAFYNESWERRHGRPIDPDTLTLLWSVTVSIFAIGGLVGTLIVKMIGKVLGRKHTLLANNGFAISAALLMACSLQAGAFEMLIVGRFIMGIDGGVALSVLPMYLSEISPKEIRGSLGQVTAIFICIGVFTGQLLGLPELLGKESTWPYLFGVIVVPAVVQLLSLPFLPDSPRYLLLEKHNEARAVKAFQTFLGKADVSQEVEEVLAESRVQRSIRLVSVLELLRAPYVRWQVVTVIVTMACYQLCGLNAIWFYTNSIFGKAGIPPAKIPYVTLSTGGIETLAAVFSGLVIEHLGRRPLLIGGFGLMGLFFGTLTITLTLQDHAPWVPYLSIVGILAIIASFCSGPGGIPFILTGEFFQQSQRPAAFIIAGTVNWLSNFAVGLLFPFIQKSLDTYCFLVFATICITGAIYLYFVLPETKNRTYAEISQAFSKRNKAYPPEEKIDSAVTDGKINGRP
modifications: N-glycosylated (shift with PNGase; site not given)
notes: human GLUT9 isoform b (SLC2A9b), cDNA from Origene, amplified with primers from the start codon (ATGAAGCTCAGTAAAAAGGACCGAG) to the stop codon; differs from GLUT9a only in the N-terminal residues; Tag order from the N-terminus: 10xHis, FLAG, HRV 3C (PreScission) site, HA, then GLUT9b; The protein was eluted from the cobalt resin by HRV 3C cleavage, so only the HA tag stays on it (it is …)
As for B1, the binding result was “binds”.
